Measured values taken from the PETadex activity labels (doi:10.1002/anie.202203061).

Assays:
PET [1] = experiment: Proxy for plastic degradation [Released monomer concentration (HPLC/LC-MS) (TPA)]
PET [2] = experiment: Proxy for plastic degradation [Released monomer concentration (HPLC/LC-MS) (MHET)]
[3] = Melting temperature [DSF / Thermofluor]; details: pH 7.5; part of the chain shown

B1: unnamed (protein)
chain: MNKSILEKIAVGTSALLFSVSAFSFTPSPTPDPDPEPQPCQGECDFTRGPAPSSSYLEASSGPYSVNTVNVSRSVSGFGGGTIHYPTNTTGTMGAIAIVPGFLAGESSIAWWGPRLASHGFVVITIATNSTFDQPASRETQLGRALDYVISQSNSNSSDISGMVDSTRVGAMGWSMGGGGALRIASGSRLSAAIPLAPWHTGSNDFDEIDTPTMIIACENDSTAPVRSHASPFYNSIPSTTDKALLEINNGSHSCANGGGSNGGLLGKYGVSWMKRFIDEDTRYSQFLCGPNHASNSAISEYRETCDY
Question: Which “Proxy for plastic degradation” value (PET [1]; 30 °C) does the source give for B1 here?
Answer: 20 µM

Question: What about the “Proxy for plastic degradation” value (PET [1]; 37 °C) of the same protein?
Answer: 20 µM

Question: And the “Proxy for plastic degradation” value (PET [1]; 45 °C)?
Answer: 20 µM

Question: What about the “Proxy for plastic degradation” value (PET [1]; 55 °C) of the same protein?
Answer: 20 µM

Question: What about the “Proxy for plastic degradation” value (PET [1]; 65 °C) of the same protein?
Answer: 20 µM

Question: And the “Proxy for plastic degradation” value (PET [2]; 30 °C)?
Answer: 3 µM

Question: What about the “Proxy for plastic degradation” value (PET [2]; 37 °C) of the same protein?
Answer: 2 µM

Question: What about the “Proxy for plastic degradation” value (PET [2]; 45 °C) of the same protein?
Answer: 2 µM

Question: And the “Proxy for plastic degradation” value (PET [2]; 55 °C)?
Answer: 1 µM

Question: What about the “Proxy for plastic degradation” value (PET [2]; 65 °C) of the same protein?
Answer: 1 µM

B2: unnamed (protein)
chain: MNFPRASRLMQAAVLGGLMAVSAAATAQTNPYARGPNPTAASLEASAGPFTVRSFTVSRPSGYGAGTVYYPTNAGGTVGAIAIVPGYTARQSSIKWWGPRLASHGFVVITIDTNSTLDQPSSRSSQQMAALRQVASLNGTSSSPIYGKVDTARMGVMGWSMGGGGSLISAANNPSLKAAAPQAPWDSSTNFSSVTVPTLIFACENDSIAPVNSSALPIYDSMSRNAKQFLEINGGSHSCANSGNSNQALIGKKGVAWMKRFMDNDTRYSTFACENPNSTRVSDFRTANCS
Question: What does the source list for B2?
Answer: Melting temperature [3]: 42 °C; Proxy for plastic degradation (PET [1]; 30 °C, part of the chain shown): 30 µM; Proxy for plastic degradation (PET [1]; 37 °C, part of the chain shown): 25 µM; Proxy for plastic degradation (PET [1]; 45 °C, part of the chain shown): 20 µM; Proxy for plastic degradation (PET [1]; 55 °C, part of the chain shown): 20 µM; Proxy for plastic degradation (PET [1]; 65 °C, part of the chain shown): 10 µM; Proxy for plastic degradation (PET [2]; 30 °C, part of the chain shown): 3 µM; Proxy for plastic degradation (PET [2]; 37 °C, part of the chain shown): 2 µM; Proxy for plastic degradation (PET [2]; 45 °C, part of the chain shown): 2 µM; Proxy for plastic degradation (PET [2]; 55 °C, part of the chain shown): 1 µM; Proxy for plastic degradation (PET [2]; 65 °C, part of the chain shown): 1 µM
